Assay [1] has as its target T1, 3′hExo as used in surface plasmon resonance (human, UniProt Q8IV48 1-349).
T1 construct: human 3′hExo (ERI1); Likely 3′hExofl
T1 sequence (looked up): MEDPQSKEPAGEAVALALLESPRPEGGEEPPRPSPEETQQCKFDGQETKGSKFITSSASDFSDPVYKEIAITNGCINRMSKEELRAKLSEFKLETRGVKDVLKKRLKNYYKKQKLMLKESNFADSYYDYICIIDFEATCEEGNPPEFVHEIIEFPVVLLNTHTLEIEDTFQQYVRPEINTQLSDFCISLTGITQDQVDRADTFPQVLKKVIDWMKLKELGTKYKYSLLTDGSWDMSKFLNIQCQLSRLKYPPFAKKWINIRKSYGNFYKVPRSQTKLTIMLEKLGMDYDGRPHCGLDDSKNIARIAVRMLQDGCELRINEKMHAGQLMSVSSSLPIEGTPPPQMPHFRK
In words: SPR; format not told in the text shown. The settings on record: both partners purified. A general note: SPR reads the build-up and loss of mass on a sensor chip optically.

Assay [2] addresses T2, 3′hExofl (human, UniProt Q8IV48 1-349).
T2 construct: human 3′hExo (ERI1), full length; Modified pET28a, N-terminal 6x His-tag followed by an HRV-3C site; also called ERI1; full-length 3′hExo; source: E. coli BL21 Star (DE3) pRARE, purified (Ni-NTA, heparin, SEC)
T2 sequence (looked up): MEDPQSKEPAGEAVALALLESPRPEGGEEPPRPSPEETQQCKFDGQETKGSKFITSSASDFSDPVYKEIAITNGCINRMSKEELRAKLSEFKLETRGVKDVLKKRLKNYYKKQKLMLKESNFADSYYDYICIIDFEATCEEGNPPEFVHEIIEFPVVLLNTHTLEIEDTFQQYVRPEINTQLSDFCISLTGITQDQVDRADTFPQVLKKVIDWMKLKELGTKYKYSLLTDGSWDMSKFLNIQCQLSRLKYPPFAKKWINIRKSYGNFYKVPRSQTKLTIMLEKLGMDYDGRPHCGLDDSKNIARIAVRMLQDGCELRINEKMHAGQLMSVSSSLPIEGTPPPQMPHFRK
In words: NMR titration; 1H-15N HSQC of 15N-labelled UPF2-AL or UPF2-ALm with stepwise addition of unlabelled 3′hExo proteins; 298 K; 20 mM HEPES pH 7.0, 100 mM NaCl, 2 mM DTT; KD from twelve amide peaks, one-to-one binding isotherm. As to conditions: both partners purified.

B1: UPF2 as used in surface plasmon resonance (domain or fragment)
chain: KKKTEGENLEEDEEEEEGGAETEEQSGNESEVNEPEEEEGSDNDDDEGEEEEEENTDYLTDSNKE
modifications: not fully specified; numbers in words are those of the source; also: modified acidic linker UPF2-ALm, further changes not given here
The term Kd denotes the free concentration of one partner at which half of the binding sites on the other are occupied at equilibrium, for simple one-to-one binding. Take B1: in assay [1], the Kd is roughly 170 µM.

B2: UPF2-ALm (residues 1024–1085) (domain or fragment, human, UniProt Q9HAU5 1024-1085, looked up)
chain: TEGENLEEDEEEEEGGAETEEQSGNESEVNEPEEEEGSDNDDDEGEEEEEENTDYLTDSNKE
notes: human UPF2, residues 1024–1085 of the acidic linker; source: E. coli, purified; 15N-labelled
On to B2, for which the Kd in assay [2] was roughly 200 µM.
